Results on 1 molecule are retold here after patent US20170369576A1 (UBI US, published 2017).

Experiment [1] deals with T1, human CD4, membrane-bound on cells (HPB-ALL cells, blood/PBMC CD4+ T cells, assay target cells) (human, UniProt P01730 26-458). Description: cell-based or functional assay.
For experiment [2], the target named is T1, human CD4, membrane-bound on cells …. Description: binding to human CD4 positive T cells (FIG. 21).
For experiment [3] the target is unchanged. Description: comparison of IC50 values, competition FACS on HPB-ALL cells.
Experiment [4] shares this target. Kind of experiment: comparison of IC50 values of FACS competition (HPB-ALL) and ELISA competition (sCD4/p2704a). In general terms: An ELISA detects its analyte on a solid surface through an enzyme-linked reagent.
Procedure: On V-bottomed microplates, aliquots of 2×10⁵ cells in 0.1 mL per well were added, centrifuged, and liquid discarded. […] The cells were washed once and the liquid discarded after centrifugation. To each well, aliquots of 200 μL of binding buffer were added and transferred to microdilution tubes for flow cytometric analysis. The binding intensity (mean fluorescence intensity, MFI), based on an inlet of 5,000 cells per sample, was read on FACS.
Experiment [5] has the same target. Kind of experiment: FACS, fresh blood CD4+ T cells of subject F1; bound dB4 detected by goat anti-hIgG-FITC. For orientation: Flow cytometry measures light scatter and fluorescence of single cells or particles in a stream.
Source text: (§1) The samples were calibrated with reference beads for fluorescence reading.
Experiment [6] has the same target. Description: FACS, fresh blood CD4+ T cells of subject F3; bound dB4 detected by goat anti-hIgG-FITC.
Source text: as §1
The target is the same in experiment [7]. Kind of experiment: FACS direct binding to HPB-ALL cells, on ice 1 h, goat F(ab)2 anti-huIgG Fc-FITC; EC50 by MFI, exp. 1.
Procedure: (§2) On V-bottomed microplates, aliquots of 2×10⁵ cells in 0.1 mL per well were added, centrifuged, and liquid discarded. […] This step was repeated one more time. The cells from the three incubations (passages) were investigated. […] The cells were washed once and the liquid discarded after centrifugation. To each well, aliquots of 200 μL of binding buffer were added and transferred to microdilution tubes for flow cytometric analysis. The binding intensity (mean fluorescence intensity, MFI), based on an inlet of 5,000 cells per sample, was read on FACS.
(§3) The absolute MFI values were also normalized to % MFI for purpose of between-passage comparison.
For experiment [8] the target is unchanged. Kind of experiment: FACS direct binding to HPB-ALL cells, on ice 1 h, goat F(ab)2 anti-huIgG Fc-FITC; EC50 by MFI, exp. 3.
Procedure: as §2, §3
Experiment [9] has the same target. Kind of experiment: FACS direct binding to HPB-ALL cells, on ice 1 h, goat F(ab)2 anti-huIgG Fc-FITC; EC50 by % MFI, exp. 2.
Procedure: as §2, §3
The target is the same in experiment [10]. Description: FACS direct binding to HPB-ALL cells, on ice 1 h, goat F(ab)2 anti-huIgG Fc-FITC; EC50 by MFI, mean of 3.
Procedure: as §2, §3
The target is the same in experiment [11]. Description: FACS direct binding to HPB-ALL cells, on ice 1 h, goat F(ab)2 anti-huIgG Fc-FITC; EC50 by % MFI, mean of 3.
Procedure: as §2, §3
For experiment [12] the target is unchanged. Description: FACS, fresh blood CD4+ T cells of subject F1; free CD4 sites left by dB4 detected by dB4C7-Alexa (250 ng/mL).
The target is the same in experiment [13]. Description: FACS, fresh blood CD4+ T cells of subject F2; free CD4 sites left by dB4 detected by dB4C7-Alexa (250 ng/mL).
For experiment [14] the target is unchanged. Kind of experiment: FACS, fresh blood CD4+ T cells of subject F3; free CD4 sites left by dB4 detected by dB4C7-Alexa (250 ng/mL).
The target is the same in experiment [15]. Description: saturation binding to HPB-ALL cells on ice 1 h; free antibody by ELISA, bound by subtraction, curve fit; exp. 1.
Procedure: (§4) The resultant saturating free-vs.-bound concentration profiles were analyzed on SigmaPlot by curve-fitting based on the equation, [B]=Bmax·{[F]/([F]+Kd)}, where the respective [B] and [F] stand for the bound and free concentrations.
(§5) The binding study was conducted at cold and/or under 0.05% azide to avoid a potential endocytosis of the ligand-receptor complexes. Incubation at room temperature or 37° C. could allow a reaction plateau to be reached sooner. […] The supernatants were collected for determination by ELISA of the free drug concentrations, and the bound fractions were obtained by subtraction from the total.
Experiment [16] has the same target. Description: saturation binding to HPB-ALL cells on ice 1 h; free antibody by ELISA, bound by subtraction, curve fit; exp. 2.
Procedure: as §4, §5
For experiment [17] the target is unchanged. Description: saturation binding to HPB-ALL cells on ice 1 h; free antibody by ELISA, bound by subtraction, curve fit; exp. 3.
Procedure: as §4, §5
Experiment [18] shares this target. Description: FACS direct binding to blood CD4+ T cells of one individual, 4°C 1 h (printed as IC50 here, as EC50 in paragraph 342).
Source text: The MFI values reflect the degree of receptor occupancy, in particular when these values are normalized and expressed as % MFI.
Experiment [19] has the same target. Kind of experiment: FACS, fresh blood CD4+ T cells, mean of six subjects; free CD4 sites left by dB4 detected by dB4C7-Alexa (250 ng/mL).

Several values for one entry are separate records, joined by “and”; a condition that tells them apart may be missing. Equal entries are not always repeated. A value given as a limit tells only on which side of the number the result lay.

As a reminder, the EC50 is the concentration that produces a half-maximal response. Read a low EC50 as greater potency. What is called Kd is the constant that tells how readily two partners part at equilibrium.

B1: mAb dB4C7 (human deimmunized, Fc-aglycosylated IgG1 derived from murine mAb B4, expressed by clone 7) (antibody, V domains shown)
VH: QVQLVQSGPELKKPGASVKVSCKASGYTFTDYVIHWVKQATGQGLEWIGEIYPGSGSAYSNAKFKDRVTMTADKSSNTAYMELSSLTSDDTAVYFCARRGNGTGFAYWGQGTLVTVSS
VL: DIVLTQSPASLAVSLGQRATITCKAGQSVDYDGDSYMNWYQQKPGQPPKLLIYVASNLESGIPARFSGSGSGTDFTLNIHPVEENDAATYYCQQSYKDPLTFGQGTKLEIKR
modifications: N-glycosylated at Asn101 in the Fv; Fc N-glycosylation site removed (N298H)
notes: treated as one molecule; also called deimmunized B4
Regarding B1, in experiment [1], the “IC50 of HIV entry inhibition, pseudotype virus 92TH594 (R5/X4), U87-CD4+/CCR5+/CXCR4+ cells” value came out at 0.05 µg/mL. In addition, the “IC50 of HIV entry inhibition, pseudotype virus HXB2 (X4), U87-CD4+/CCR5+/CXCR4+ cells” value in experiment [1] was determined as 0.4 µg/mL. For the same molecule, the EC50 in experiment [2] is 0.33 µg/mL; in experiment [5], 0.0047 µg/mL; in experiment [6] it was 0.0037 µg/mL; in experiment [7] it was 0.0421 µg/mL; in [8], 0.0407 µg/mL; in [9] it was 0.0457 µg/mL. The 50% effective concentration (EC50) worked out at 0.0422 µg/mL in experiment [10]; 0.0429 µg/mL in [11]; 0.0043 µg/mL in experiment [12]; 0.0066 µg/mL in [13]; 0.0043 µg/mL in experiment [14]; 0.023 µg/mL in experiment [18]. The same molecule returned a half-maximal effective concentration (EC50) in [19] of 0.0047 µg/mL. In addition, the “fold binding affinity against gp120 MN” value in experiment [3] is at least 50 fold. Besides, the “fold binding affinity, CD4-positive T cells against sCD4” value in [4] was over 40 fold. Also, the Kd was 0.057 nM and 0.0086 µg/mL in experiment [15]; 0.0121 µg/mL and 0.081 nM in experiment [16]; 0.0047 µg/mL and 0.031 nM in experiment [17].
